{
  "source": "FireProtDB (doi:10.1021/bi962155i)",
  "conditions": "Saccharomyces cerevisiae (strain ATCC 204508 / S288c), pH 5, CD, Sodium acetate buffer, reversible: yes",
  "note": "Values joined by “and” are separate entries in the source; they are usually repeats but may differ in a detail not shown here. Identical values can stand only once.",
  "data": [
    {"substance": "Cytochrome c isoform 1 wild type, P00044", "values": [
      {"measurement": "denaturant m value", "setting": "5 °C, GdnHCl", "value": 5.4, "unit": "kcal/mol/M"},
      {"measurement": "denaturant midpoint (higher = more stable)", "setting": "5 °C, GdnHCl", "value": 1.4, "unit": "M"},
      {"measurement": "unfolding free energy", "setting": "5 °C, GdnHCl", "value": 7.8, "unit": "kcal/mol"},
      {"measurement": "unfolding enthalpy (calorimetric)", "setting": "Thermal", "value": "91.8 kcal/mol and 42.8 kcal/mol"}
    ]}
  ]
}
